# Data taken from IntAct's records for PubMed 10660620.
# B1: Paired immunoglobulin-like type 2 receptor alpha (Homo sapiens), Q9UKJ1 (parent)
# chain: MGRPLLLPLLPLLLPPAFLQPSGSTGSGPSYLYGVTQPKHLSASMGGSVEIPFSFYYPWELATAPDVRISWRRGHFHRQSFYSTRPPSIHKDYVNRLFLNWTEGQKSGFLRISNLQKQDQSVYFCRVELDTRSSGRQQWQSIEGTKLSITQAVTTTTQRPSSMTTTWRLSSTTTTTGLRVTQGKRRSDSWHISLETAVGVAVAVTVLGIMILGLICLLRWRRRKGQQRTKATTPAREPFQNTEEPYENIRNEGQNTDPKLNPKDDGIVYASLALSSSTSPRAPPSHRPLKSPQNETLYSVLKA
# Variants of: B1
# Conditions: with ptn6_human PTPN6, P29350
# Chain of ptn6_human PTPN6, P29350 (P29350 whole entry): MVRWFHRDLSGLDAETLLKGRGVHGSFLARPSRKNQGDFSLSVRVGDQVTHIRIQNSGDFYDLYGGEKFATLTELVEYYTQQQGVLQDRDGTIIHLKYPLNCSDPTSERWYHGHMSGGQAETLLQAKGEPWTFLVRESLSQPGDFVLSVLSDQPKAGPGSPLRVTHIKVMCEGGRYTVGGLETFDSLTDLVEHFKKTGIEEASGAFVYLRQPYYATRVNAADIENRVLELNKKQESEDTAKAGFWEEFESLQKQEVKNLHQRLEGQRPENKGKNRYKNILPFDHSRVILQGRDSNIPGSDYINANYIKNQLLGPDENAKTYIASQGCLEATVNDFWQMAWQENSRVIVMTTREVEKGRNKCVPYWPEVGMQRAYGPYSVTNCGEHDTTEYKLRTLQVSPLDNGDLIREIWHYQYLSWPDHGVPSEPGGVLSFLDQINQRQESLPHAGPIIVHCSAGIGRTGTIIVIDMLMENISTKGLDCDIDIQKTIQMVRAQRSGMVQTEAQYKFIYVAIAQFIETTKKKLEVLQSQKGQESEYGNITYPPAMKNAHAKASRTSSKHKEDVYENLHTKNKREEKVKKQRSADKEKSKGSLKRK
row,effect of a mutation on the interaction,Variant
1,decreasing interaction,Y269F
2,decreasing interaction,Y269F;Y298F
